According to patent US20250115669A1, “FGFR1/KLB Targeting Agonistic Antigen-Binding Proteins and Conjugates Thereof with GLP-1R Agonistic Peptides” (SANOFI, priority 2020, published 2025):

Legend:
human beta-Klotho = biological target: T1, human beta-Klotho (Homo sapiens, UniProt Q86Z14); test: SPR analysis of the active fraction of stressed antibodies; format: binding; details: 21 days
T1 sequence (Q86Z14 1-1044): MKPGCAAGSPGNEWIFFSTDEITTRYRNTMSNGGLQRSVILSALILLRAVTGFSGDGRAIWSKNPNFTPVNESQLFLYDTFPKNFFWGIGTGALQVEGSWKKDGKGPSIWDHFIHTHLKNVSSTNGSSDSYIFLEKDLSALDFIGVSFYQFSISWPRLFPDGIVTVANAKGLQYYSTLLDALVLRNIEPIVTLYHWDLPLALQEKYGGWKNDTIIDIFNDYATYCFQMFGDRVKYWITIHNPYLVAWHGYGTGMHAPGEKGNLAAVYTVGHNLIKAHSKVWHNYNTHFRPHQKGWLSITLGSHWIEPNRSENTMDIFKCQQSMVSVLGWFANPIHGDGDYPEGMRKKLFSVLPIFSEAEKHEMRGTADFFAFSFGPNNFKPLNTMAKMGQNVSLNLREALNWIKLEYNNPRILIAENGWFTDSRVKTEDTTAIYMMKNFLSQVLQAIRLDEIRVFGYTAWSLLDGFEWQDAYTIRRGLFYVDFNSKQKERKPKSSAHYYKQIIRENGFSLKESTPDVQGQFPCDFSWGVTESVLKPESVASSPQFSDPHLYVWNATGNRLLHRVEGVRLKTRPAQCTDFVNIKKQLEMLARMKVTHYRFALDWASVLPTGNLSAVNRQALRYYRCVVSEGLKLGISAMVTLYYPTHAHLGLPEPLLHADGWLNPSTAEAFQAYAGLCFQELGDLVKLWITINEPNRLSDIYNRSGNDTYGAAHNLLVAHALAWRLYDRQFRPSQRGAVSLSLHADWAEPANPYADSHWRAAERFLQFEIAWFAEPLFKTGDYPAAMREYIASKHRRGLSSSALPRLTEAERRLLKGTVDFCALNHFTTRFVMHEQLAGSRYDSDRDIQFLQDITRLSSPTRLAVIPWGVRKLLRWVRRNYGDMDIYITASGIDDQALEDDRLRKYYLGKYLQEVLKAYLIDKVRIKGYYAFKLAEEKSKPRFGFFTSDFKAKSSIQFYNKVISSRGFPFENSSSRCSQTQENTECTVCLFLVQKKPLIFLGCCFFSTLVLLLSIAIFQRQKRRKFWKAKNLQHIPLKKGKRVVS
Method: Analysis of the active fraction of stressed antibodies was performed by SPR using the same Fc capture assay set up as described above for the affinity determination. In this case the association and dissociation times for human beta-Klotho were set to 240 sec and 300 sec, respectively. The active fraction of the samples was calculated as the ratio of binding signal for human beta-Klotho and the Fc capture signal of the antibody, normalized to the active fraction of the unstressed control samples. Mean values from three experiments were calculated.

[1] = Hydrophobic interaction chromatography (HIC); format: physicochemical
Method: The analysis was run at a flow rate of 1 mL/min with detection at 280 nm. 5 μg of undiluted protein sample were applied onto the column. Gradient elution was from 15% B to 85% B in 7 min followed by 1 min to 100% B, then 1 min to 15% B and then 3 minutes equilibration at 15% B. Buffer A was composed of 1.5 mol/L ammonium sulfate, 25 mmol/L sodium phosphate pH 7.0. Buffer B was composed of 25 mmol/L sodium phosphate pH 7.0. Data evaluation was performed either using LabSolutions software v5.85 (Shimadzu) or Chromeleon 7 software (Thermo Fisher Scientific).

[2] = Nano differential scanning fluorimetry (nanoDSF), Tonset and Tm; format: physicochemical
Method: Onset temperatures (Tonset) and melting points (Tm) of protein denaturation were determined using nano differential scanning fluorimetry (nanoDSF). Samples were diluted in formulation buffer to a final concentration of 0.5 mg/mL and loaded into nanoDSF capillaries in duplicates (Nanotemper Technologies). All measurements were done using a Prometheus NT.plex nanoDSF device (Nanotemper Technologies). Heating rate was 1° C. per minute from 20° C. to 95° C. Data were recorded using PR.ThermControl Software v2.3.1 (Nanotemper Technologies) and analyzed using PR.Stability Analysis Software v1.0.3 (Nanotemper Technologies).

[3] = Dynamic light scattering (DLS) and diffusion interaction parameter (kD); format: physicochemical
Method: Dynamic light scattering (DLS) was performed using a DynaPro Plate Reader (Wyatt Technology). The samples were measured in 384 well assay plates (Corning) at 25° C. Data were evaluated by cumulant fitting using Dynamics Software version 7.7.0.125 (Wyatt Technology).
Colloidal stability of the samples was assessed by measuring the diffusion interaction parameter (kD) at 20° C. using a DynaPro Plate Reader (Wyatt Technology). Before the measurements the samples were buffer exchanged against 5 L of 10 mmol/L Histidine pH 6.0 by dialysis for 20 h with one buffer change using 1 mL Float-A-Lyzer G2 devices with 3.5-5 kDa cut-off (Spectrum Labs). A dilution series from 1 to 4.5 mg/mL, in 0.5 mg/mL increments, was prepared in 10 mmol/L Histidine pH 6.0 and measured in 384 well assay plates (Corning).

[4] = Intact mass spectrometry (IMS); format: physicochemical; details: for intact mass Identity confirmed / intact mass Peak intensity post stress: 21 days
Method: Protein integrity was analyzed by LC-MS. […] Reversed phase (RP) chromatography was done using a PLRP-S 1000A 5 μm, 50×2.1 mm (Agilent) with a guard column PLRP-S 300A 5 μm, 3×5 mm (Agilent) at 200 μL/min and 80° C. column temperature. Eluents were buffer A containing LC water and 0.1% formic acid as well as buffer B containing 90% acetonitrile, 10% LC water and 0.1% formic acid. 1 μg of protein was injected onto the column and eluted using linear gradient from 0 to 17 minutes with increasing acetonitrile concentration. Data was analyzed using MassHunter Bioconfirm B.06 (Agilent). Molecular masses were calculated based on the amino acid sequences of the proteins using GPMAW software version 10 (Lighthouse data).

Row | Substance | SPR rel. active fraction (human beta-Klotho; pH 5, 40° C.) | SPR rel. active fraction (human beta-Klotho; pH 6, 40° C.) | SPR rel. active fraction (human beta-Klotho; pH 8, 40° C.) | Hydrophobic variance HIC Number of peaks [1] | HIC Number of peaks ([1]; pH 5, 40° C., d 21) | HIC Number of peaks ([1]; pH 5, d 0) | HIC Number of peaks ([1]; pH 6, 40° C., d 21) | HIC Number of peaks ([1]; pH 6, d 0) | HIC Number of peaks ([1]; pH 8, 40° C., d 21) | HIC Number of peaks ([1]; pH 8, d 0) | Thermal stability DSF Tm [2] | Thermal stability DSF Tonset [2] | DSF Tm ([2]; pH 5, 40° C., d 21) | DSF Tonset ([2]; pH 5, 40° C., d 21) | DSF Tm ([2]; pH 5, d 0) | DSF Tonset ([2]; pH 5, d 0) | DSF Tm ([2]; pH 6, 40° C., d 21) | DSF Tonset ([2]; pH 6, 40° C., d 21) | DSF Tm ([2]; pH 6, d 0) | DSF Tonset ([2]; pH 6, d 0) | other results
1 | Ab0429: IgG1 NNAS; 16H7 VL (N25S, D49S, D50A, D91E, N93E); 16H7 VH (M34V, I83T, D109E); HC SEQ ID NO: 42, LC SEQ ID NO: 49 | 94% | 92% | 77% | 1 | 1 | 1 | 1 | 1 | 1 | 1 | 62 °C | 50 °C | 60 °C | 51 °C | 58 °C | 51 °C | 62 °C | 48 °C | 62 °C | 50 °C | DSF Tm ([2]; pH 8, 40° C., d 21): 69 °C; DSF Tonset ([2]; pH 8, 40° C., d 21): 55 °C; DSF Tm ([2]; pH 8, d 0): 63 °C; DSF Tonset ([2]; pH 8, d 0): 53 °C; Homogeneity DLS Hydrodynamic radius [3]: 5.3 nm; DLS Hydrodynamic radius ([3]; pH 5, 40° C., d 21): 5.4 nm; DLS Hydrodynamic radius ([3]; pH 5, d 0): 5.4 nm; DLS Hydrodynamic radius ([3]; pH 6, 40° C., d 21): 5.5 nm; DLS Hydrodynamic radius ([3]; pH 6, d 0): 5.4 nm; DLS Hydrodynamic radius ([3]; pH 8, 40° C., d 21): 6.3 nm; DLS Hydrodynamic radius ([3]; pH 8, d 0): 5.3 nm; Identity, correct pairing, intact mass, Identity confirmed [4]: Yes; intact mass Identity confirmed ([4]; pH 5, 40° C.): Yes; intact mass Peak intensity post stress ([4]; pH 5, 40° C.): 95%; intact mass Identity confirmed ([4]; pH 6, 40° C.): Yes; intact mass Peak intensity post stress ([4]; pH 6, 40° C.): 83%; intact mass Identity confirmed ([4]; pH 8, 40° C.): Yes; intact mass Peak intensity post stress ([4]; pH 8, 40° C.): 68%
2 | Ab0331: IgG4 PE; 16H7 VL (N25S, D49S, D50E, D91E, N93E); 16H7 VH (M34V, I83T, D109E); HC SEQ ID NO: 38, LC SEQ ID NO: 45 | 97% | 91% | 78% | 1 | 1 | 1 | 1 | 1 | 1 | 1 | 63 °C | 53 °C | 61 °C | 44 °C | 61 °C | 54 °C | 62 °C | 50 °C | 63 °C | 53 °C | DSF Tm ([2]; pH 8, 40° C., d 21): 67 °C; DSF Tonset ([2]; pH 8, 40° C., d 21): 57 °C; DSF Tm ([2]; pH 8, d 0): 68 °C; DSF Tonset ([2]; pH 8, d 0): 58 °C; Homogeneity DLS Hydrodynamic radius [3]: 5.3 nm; DLS Hydrodynamic radius ([3]; pH 5, 40° C., d 21): 5.3 nm; DLS Hydrodynamic radius ([3]; pH 5, d 0): 5.5 nm; DLS Hydrodynamic radius ([3]; pH 6, 40° C., d 21): 5.2 nm; DLS Hydrodynamic radius ([3]; pH 6, d 0): 5 nm; DLS Hydrodynamic radius ([3]; pH 8, 40° C., d 21): 5.9 nm; DLS Hydrodynamic radius ([3]; pH 8, d 0): 5.6 nm; Identity, correct pairing, intact mass, Identity confirmed [4]: Yes; intact mass Identity confirmed ([4]; pH 5, 40° C.): Yes; intact mass Peak intensity post stress ([4]; pH 5, 40° C.): 84%; intact mass Identity confirmed ([4]; pH 6, 40° C.): Yes; intact mass Peak intensity post stress ([4]; pH 6, 40° C.): 97%; intact mass Identity confirmed ([4]; pH 8, 40° C.): Yes; intact mass Peak intensity post stress ([4]; pH 8, 40° C.): 75%
3 | Ab0351: IgG4 PE; 16H7 VL (N25S, D49E, D50E, D91E, N93E); 16H7 VH (M34V, I83T, D109E); HC SEQ ID NO: 40, LC SEQ ID NO: 47 | 95% | 92% | 75% | 1 | 1 | 1 | 1 | 1 | 1 | 1 | 62 °C | 53 °C | 61 °C | 45 °C | 61 °C | 50 °C | 62 °C | 52 °C | 62 °C | 53 °C | DSF Tm ([2]; pH 8, 40° C., d 21): 66 °C; DSF Tonset ([2]; pH 8, 40° C., d 21): 57 °C; DSF Tm ([2]; pH 8, d 0): 66 °C; DSF Tonset ([2]; pH 8, d 0): 58 °C; Homogeneity DLS Hydrodynamic radius [3]: 5.3 nm; DLS Hydrodynamic radius ([3]; pH 5, 40° C., d 21): 5.6 nm; DLS Hydrodynamic radius ([3]; pH 5, d 0): 5.4 nm; DLS Hydrodynamic radius ([3]; pH 6, 40° C., d 21): 5.2 nm; DLS Hydrodynamic radius ([3]; pH 6, d 0): 5.2 nm; DLS Hydrodynamic radius ([3]; pH 8, 40° C., d 21): 8.1 nm; DLS Hydrodynamic radius ([3]; pH 8, d 0): 5.6 nm; Identity, correct pairing, intact mass, Identity confirmed [4]: Yes; intact mass Identity confirmed ([4]; pH 5, 40° C.): Yes; intact mass Peak intensity post stress ([4]; pH 5, 40° C.): 90%; intact mass Identity confirmed ([4]; pH 6, 40° C.): Yes; intact mass Peak intensity post stress ([4]; pH 6, 40° C.): 96%; intact mass Identity confirmed ([4]; pH 8, 40° C.): Yes; intact mass Peak intensity post stress ([4]; pH 8, 40° C.): 77%
4 | Ab0428: IgG1 NNAS; 16H7 VL (N25S, D49S, D50E, D91E, N93E); 16H7 VH (M34V, I83T, D109E); HC SEQ ID NO: 41, LC SEQ ID NO: 48 | 94% | 93% | 79% | 1 | 1 | 1 | 1 | 1 | 1 | 1 | 62 °C | 48 °C | 59 °C | 51 °C | 59 °C | 50 °C | 62 °C | 47 °C | 62 °C | 48 °C | DSF Tm ([2]; pH 8, 40° C., d 21): 67 °C; DSF Tonset ([2]; pH 8, 40° C., d 21): 56 °C; DSF Tm ([2]; pH 8, d 0): 68 °C; DSF Tonset ([2]; pH 8, d 0): 54 °C; Homogeneity DLS Hydrodynamic radius [3]: 5.4 nm; DLS Hydrodynamic radius ([3]; pH 5, 40° C., d 21): 5.5 nm; DLS Hydrodynamic radius ([3]; pH 5, d 0): 5.4 nm; DLS Hydrodynamic radius ([3]; pH 6, 40° C., d 21): 5.3 nm; DLS Hydrodynamic radius ([3]; pH 6, d 0): 5.4 nm; DLS Hydrodynamic radius ([3]; pH 8, 40° C., d 21): 6.1 nm; DLS Hydrodynamic radius ([3]; pH 8, d 0): 5.4 nm; Identity, correct pairing, intact mass, Identity confirmed [4]: Yes; intact mass Identity confirmed ([4]; pH 5, 40° C.): Yes; intact mass Peak intensity post stress ([4]; pH 5, 40° C.): 84%; intact mass Identity confirmed ([4]; pH 6, 40° C.): Yes; intact mass Peak intensity post stress ([4]; pH 6, 40° C.): 87%; intact mass Identity confirmed ([4]; pH 8, 40° C.): Yes; intact mass Peak intensity post stress ([4]; pH 8, 40° C.): 56%
